Data on 3 molecules can be found in patent US20230303685A1.

Experiment [1] has as its target human SIRPα on hSIRPα-expressing cells (human) (UniProt P78324). The experiment can be described thus: flow cytometry, stably transfected CHO cells, antibody titrated, labelled anti-rat or anti-mouse IgG, MFI.
Experiment [2] shares this target. The experiment can be described thus: flow cytometry, stably transfected CHO cells, antibody titrated, labelled anti-human IgG, MFI.

B1: Antibody 4 (antibody, V domains shown)
VH: QVQLQESGPGLLKPSETLSLTCAVSDYSISSGYYWGWIRQPPGKGLEWIGSIYHSGNTYYNPSLKSRVTILVDTSKNQFSLKLSSVTAADTAVYYCARDKCSTTTCSFDYWGQGTLVTVSS
VL: DIQMTQSPSSLSASVGDRVTITCQASQDFSNYLNWYQQKPGKAPKLLIYAASNLETGVPSRFSGSGSGTDFTFTISSLQPEDIAVYYCQQYDNLPYTFGQGTKLEIK
By EC50 (read off the curve) is commonly meant the midpoint of the concentration-response curve. Molecule B1 gave an EC50 (read off the curve) in experiment [1] of 1 µg/mL.

B2: Antibody 28 (antibody, V domains shown)
VH: QVQLQESGPGLVKPSGTLSLTCAVSGGSISSSNWWSWVRQPPGKGLEWIGEIYHSGSTNYNPSLKSRVTISVDKSKNQFSLKLSSVTAADTAVYYCARRGIWFGVGPWGQGTLVTVSS
VL: DIVMTQSPLSLPVTPGEPASISCRSSQSLLHGNGFNYLDWYLQKPGQSPQLLIYLGSNRASGVPDRFTGSGSGTDFTLKISRVEAEDVGVYYCMQGLQTPRTFGQGTKVEIK
Molecule B2 registered an EC50 (read off the curve) in experiment [2] of 0.2 µg/mL.

B3: Antibody 11 (antibody, V domains shown)
VH: EVQLVESGGGLVQPGGSLRLSCAASGFTFSSYWMHWVRQAPGKGLVWVSRIHNDGSRTSYADSVKGRFTISRDNAKNTLYLQMSSLRAEDTAVYYCTRDPPPYDILTGYPFDYWGQGTLVTVSS
VL: DIQMTQSPSSVSASVGDRVTITCRASQDISSWLAWFQQKPGKAPKLLIYGASSLQSGVPSRFSGSGSGTDFTLTISSLQPEDFATYYCQEANSFPYTFGQGTKLEIK
The molecule B3 showed an EC50 (read off the curve) in experiment [1] of 0.1 µg/mL.
